# Assay results published in patent US12104181B2, “Compositions and methods for treating viral infections targeting TRIM7” (THE BOARD OF REGENTS OF THE UNIVERSITY OF TEXAS SYSTEM, priority 2021, dated 2024).
# Values joined by “and” are separate entries in the source; they are usually repeats but may differ in a detail not shown here. Equal entries are not always repeated.
# B1: RCHY1: human RING type E3 ligase expressed from lentiviral vector; listed twice (protein, UniProt Q96PM5 1-261, looked up)
# RING finger and CHY zinc …: MAATAREDGASGQERGQRGCEHYDRGCLLKAPCCDKLYTCRLCHDNNEDHQLDRFKVKEVQCINCEKIQHAQQTCEECSTLFGEYYCDICHLFDKDKKQYHCENCGICRIGPKEDFFHCLKCNLCLAMNLQGRHKCIENVSRQNCPICLEDIHTSRVVAHVLPCGHLLHRTCYEEMLKEGYRCPLCMHSALDMTRYWRQLDDEVAQTPMPSEYQNMTVDILCNDCNGRSTVQFHILGMKCKICESYNTAQAGGRRISLDQQ
# B2: RNF103: human RING type E3 ligase expressed from lentiviral vector (protein, UniProt O00237 1-685, looked up)
# E3 ubiquitin-protein ligase …: MWLKLFFLLLYFLVLFVLARFFEAIVWYETGIFATQLVDPVALSFKKLKTILECRGLGYSGLPEKKDVRELVEKSGDLMEGELYSALKEEEASESVSSTNFSGEMHFYELVEDTKDGIWLVQVIANDRSPLVGKIHWEKMVKKVSRFGIRTGTFNCSSDPRYCRRRGWVRSTLIMSVPQTSTSKGKVMLKEYSGRKIEVEHIFKWITAHAASRIKTIYNAEHLKEEWNKSDQYWLKIYLFANLDQPPAFFSALSIKFTGRVEFIFVNVENWDNKSYMTDIGIYNMPSYILRTPEGIYRYGNHTGEFISLQAMDSFLRSLQPEVNDLFVLSLVLVNLMAWMDLFITQGATIKRFVVLISTLGTYNSLLIISWLPVLGFLQLPYLDSFYEYSLKLLRYSNTTTLASWVRADWMFYSSHPALFLSTYLGHGLLIDYFEKKRRRNNNNDEVNANNLEWLSSLWDWYTSYLFHPIASFQNFPVESDWDEDPDLFLERLAFPDLWLHPLIPTDYIKNLPMWRFKCLGVQSEEEMSEGSQDTENDSESENTDTLSSEKEVFEDKQSVLHNSPGTASHCDAEACSCANKYCQTSPCERKGRSYGSYNTNEDMEPDWLTWPADMLHCTECVVCLENFENGCLLMGLPCGHVFHQNCIVMWLAGGRHCCPVCRWPSYKKKQPYAQHQPLSNDVPS
# modifications: lentiviral expression
# notes: human RING type E3 ligase expressed from lentiviral vector
# B3: RNF112: human RING type E3 ligase expressed from lentiviral vector (protein, UniProt Q9ULX5 1-631, looked up)
# RING finger protein 112: MPRPALSVTSFCHRLGKRERKQSFMGNSGNSWSHTPFPKLELGLGPQPMAPRELPTCSICLERLRDPISLDCGHDFCIRCFSTHRLPGCEPPCCPECRKICKQKRGLRSLGEKMKLLPQRPLPPALQETCPVRAEPLLLVRINASGGLILRMGAINRCLKHPLARDTPVCLLAVLGEQHSGKSFLLNHLLQGLPGLESGEGGRPRGGEASLQGCRWGANGLARGIWMWSHPFLLGKEGKKVAVFLVDTGDAMSPELSRETRIKLCALTTMLSSYQILSTSQELKDTDLDYLEMFVHVAEVMGKHYGMVPIQHLDLLVRDSSHPNKAGQGHVGNIFQRLSGRYPKVQELLQGKRARCCLLPAPGRRRMNQGHASPGDTDDDFRHLLGAYVSDVLSAAPQHAKSRCQGYWNEGRAVARGDRRLLTGQQLAQEIKNLSGWMGRTGPGFTSPDEMAAQLHDLRKVEAAKREFEEYVRQQDVATKRIFSALRVLPDTMRNLLSTQKDAILARHGVALLCKGRDQTLEALEAELQATAKAFMDSYTMRFCGHLAAVGGAVGAGLMGLAGGVVGAGMAAAALAAEAGMVAAGAAVGATGAAVVGGGVGAGLAATVGCMEKEEDERLLEGDREPLLQEE
# modifications: lentiviral expression
# notes: as for B2
# B4: RNF145: human RING type E3 ligase expressed from lentiviral vector (protein, UniProt Q96MT1 1-663, looked up)
# RING finger protein 145: MAAKEKLEAVLNVALRVPSIMLLDVLYRWDVSSFFQQIQRSSLSNNPLFQYKYLALNMHYVGYILSVVLLTLPRQHLVQLYLYFLTALLLYAGHQISRDYVRSELEFAYEGPMYLEPLSMNRFTTALIGQLVVCTLCSCVMKTKQIWLFSAHMLPLLARLCLVPLETIVIINKFAMIFTGLEVLYFLGSNLLVPYNLAKSAYRELVQVVEVYGLLALGMSLWNQLVVPVLFMVFWLVLFALQIYSYFSTRDQPASRERLLFLFLTSIAECCSTPYSLLGLVFTVSFVALGVLTLCKFYLQGYRAFMNDPAMNRGMTEGVTLLILAVQTGLIELQVVHRAFLLSIILFIVVASILQSMLEIADPIVLALGASRDKSLWKHFRAVSLCLFLLVFPAYMAYMICQFFHMDFWLLIIISSSILTSLQVLGTLFIYVLFMVEEFRKEPVENMDDVIYYVNGTYRLLEFLVALCVVAYGVSETIFGEWTVMGSMIIFIHSYYNVWLRAQLGWKSFLLRRDAVNKIKSLPIATKEQLEKHNDICAICYQDMKSAVITPCSHFFHAGCLKKWLYVQETCPLCHCHLKNSSQLPGLGTEPVLQPHAGAEQNVMFQEGTEPPGQEHTPGTRIQEGSRDNNEYIARRPDNQEGAFDPKEYPHSAKDEAHPVESA
# B5: RNF135: human RING type E3 ligase expressed from lentiviral vector (protein, UniProt Q8IUD6 1-432, looked up)
# E3 ubiquitin-protein ligase …: MAGLGLGSAVPVWLAEDDLGCIICQGLLDWPATLPCGHSFCRHCLEALWGARDARRWACPTCRQGAAQQPHLRKNTLLQDLADKYRRAAREIQAGSDPAHCPCPGSSSLSSAAARPRRRPELQRVAVEKSITEVAQELTELVEHLVDIVRSLQNQRPLSESGPDNELSILGKAFSSGVDLSMASPKLVTSDTAAGKIRDILHDLEEIQEKLQESVTWKEAPEAQMQGELLEAPSSSSCPLPDQSHPALRRASRFAQWAIHPTFNLKSLSCSLEVSKDSRTVTVSHRPQPYRWSCERFSTSQVLCSQALSSGKHYWEVDTRNCSHWAVGVASWEMSRDQVLGRTMDSCCVEWKGTSQLSAWHMVKETVLGSDRPGVVGIWLNLEEGKLAFYSVDNQEKLLYECTISASSPLYPAFWLYGLHPGNYLIIKQVKV
# modifications: lentiviral expression
# notes: as for B2
# B6: RNF182: human RING type E3 ligase expressed from lentiviral vector (protein, UniProt Q8N6D2 1-247, looked up)
# E3 ubiquitin-protein ligase …: MASQPPEDTAESQASDELECKICYNRYNLKQRKPKVLECCHRVCAKCLYKIIDFGDSPQGVIVCPFCRFETCLPDDEVSSLPDDNNILVNLTCGGKGKKCLPENPTELLLTPKRLASLVSPSHTSSNCLVITIMEVQRESSPSLSSTPVVEFYRPASFDSVTTVSHNWTVWNCTSLLFQTSIRVLVWLLGLLYFSSLPLGIYLLVSKKVTLGVVFVSLVPSSLVILMVYGFCQCVCHEFLDCMAPPS
# B7: RNF166: human RING type E3 ligase expressed from lentiviral vector (protein, UniProt Q96A37 1-237, looked up)
# E3 ubiquitin-protein ligase …: MAMFRSLVASAQQRQPPAGPAGGDSGLEAQYTCPICLEVYHRPVAIGSCGHTFCGECLQPCLQVPSPLCPLCRLPFDPKKVDKATHVEKQLSSYKAPCRGCNKKVTLAKMRVHISSCLKVQEQMANCPKFVPVVPTSQPIPSNIPNRSTFACPYCGARNLDQQELVKHCVESHRSDPNRVVCPICSAMPWGDPSYKSANFLQHLLHRHKFSYDTFVDYSIDEEAAFQAALALSLSEN
# modifications: lentiviral expression
# notes: as for B2
# B8: RNF180: human RING type E3 ligase expressed from lentiviral vector (protein, UniProt Q86T96 1-592, looked up)
# E3 ubiquitin-protein ligase …: MKRSKELITKNHSQEETSILRCWKCRKCIASSGCFMEYLENQVIKDKDDSVDAQNICHVWHMNVEALPEWISCLIQKAQWTVGKLNCPFCGARLGGFNFVSTPKCSCGQLAAVHLSKSRTDYQPTQAGRLMRPSVKYLSHPRVQSGCDKEALLTGGGSENRNHRLLNMARNNNDPGRLTEALCLEVRPTYFEMKNEKLLSKASEPKYQLFVPQLVTGRCATRAFHRKSHSLDLNISEKLTLLPTLYEIHSKTTAYSRLNETQPIDLSGLPLQSSKNSYSFQNPSSFDPSMLLQRFSVAPHETQTQRGGEFQCGLEAASVYSDHTNTNNLTFLMDLPSAGRSMPEASDQEEHLSPLDFLHSANFSLGSINQRLNKRERSKLKNLRRKQRRRERWLQKQGKYSGVGLLDHMTLNNEMSTDEDNEYAEEKDSYICAVCLDVYFNPYMCYPCHHIFCEPCLRTLAKDNPSSTPCPLCRTIISRVFFQTELNNATKTFFTKEYLKIKQSFQKSNSAKWPLPSCRKAFHLFGGFRRHAAPVTRRQFPHGAHRMDYLHFEDDSRGWWFDMDMVIIYIYSVNWVIGFIVFCFLCYFFFPF
# modifications: lentiviral expression
# notes: as for B2
# B9: RNF151: human RING type E3 ligase expressed from lentiviral vector (protein, UniProt Q2KHN1 1-245, looked up)
# RING finger protein 151: MGGGYDLNLFASPPDSNFVCSVCHGVLKRPARLPCSHIFCKKCILRWLARQKTCPCCRKEVKRKKVVHMNKLRKTIGRLEVKCKNADAGCIVTCPLAHRKGHQDSCPFELTACPNEGCTSQVPRGTLAEHRQHCQQGSQQRCPLGCGATLDPAERARHNCYRELHNAWSVRQERRRPLLLSLLRRVRWLDQATSVVRRELAELSNFLEEDTALLEGAPQEEAEAAPEGNVGAEVVGEPRANIPCK
# B10: RNF152: human RING type E3 ligase expressed from lentiviral vector (protein, UniProt Q8N8N0 1-203, looked up)
# E3 ubiquitin-protein ligase …: METLSQDSLLECQICFNYYSPRRRPKLLDCKHTCCSVCLQQMRTSQKDVRCPWCRGVTKLPPGFSVSQLPDDPEVLAVIAIPHTSEHTPVFIKLPSNGCYMLPLPISKERALLPGDMGCRLLPGSQQKSVTVVTIPAEQQPLQGGAPQEAVEEEQDRRGVVKSSTWSGVCTVILVACVLVFLLGIVLHNMSCISKRFTVISCG
# modifications: lentiviral expression
# notes: as for B2
# B11: MARCH1: human RING type E3 ligase expressed from lentiviral vector (protein, UniProt Q8TCQ1 1-289, looked up)
# E3 ubiquitin-protein ligase …: MLGWCEAIARNPHRIPNNTRTPEISGDLADASQTSTLNEKSPGRSASRSSNISKASSPTTGTAPRSQSRLSVCPSTQDICRICHCEGDEESPLITPCRCTGTLRFVHQSCLHQWIKSSDTRCCELCKYDFIMETKLKPLRKWEKLQMTTSERRKIFCSVTFHVIAITCVVWSLYVLIDRTAEEIKQGNDNGVLEWPFWTKLVVVAIGFTGGLVFMYVQCKVYVQLWRRLKAYNRVIFVQNCPDTAKKLEKNFSCNVNTDIKDAVVVPVPQTGANSLPSAEGGPPEVVSV
# Tested on: coxsackievirus B3 (CVB3-GFP)
# Format: cell-based
# Details: HeLa cells, GFP-positive cells within RFP-positive gate, replicate R1
row,Molecule,Percent Infected R1
1,B1,97.6% and 91.2%
2,B2,96.9%
3,B3,86.6%
4,B4,94.2%
5,B5,86.2%
6,B6,97.9%
7,B7,94.5%
8,B8,93.2%
9,B9,92.8%
10,B10,97.4%
11,B11,97.7%

# Same assay, conditions: HeLa cells, replicate R1
row,Molecule,Z score R1
1,B1,0.11 and 0.03
2,B2,0.11
3,B3,−0.03
4,B4,0.07
5,B5,−0.03
6,B6,0.12
7,B7,0.08
8,B8,0.06
9,B9,0.05
10,B10,0.11
11,B11,0.12
